# Experimental data reported in IntAct's records for PubMed 19274086.
# B1: Serine/threonine-protein kinase STK11 (Mus musculus), Q9WTK7 (parent)
# chain: MDVADPEPLGLFSEGELMSVGMDTFIHRIDSTEVIYQPRRKRAKLIGKYLMGDLLGEGSYGKVKEVLDSETLCRRAVKILKKKKLRRIPNGEANVKKEIQLLRRLRHRNVIQLVDVLYNEEKQKMYMVMEYCVCGMQEMLDSVPEKRFPVCQAHGYFRQLIDGLEYLHSQGIVHKDIKPGNLLLTTNGTLKISDLGVAEALHPFAVDDTCRTSQGSPAFQPPEIANGLDTFSGFKVDIWSAGVTLYNITTGLYPFEGDNIYKLFENIGRGDFTIPCDCGPPLSDLLRGMLEYEPAKRFSIRQIRQHSWFRKKHPLAEALVPIPPSPDTKDRWRSMTVVPYLEDLHGRAEEEEEEDLFDIEDGIIYTQDFTVPGQVLEEEVGQNGQSHSLPKAVCVNGTEPQLSSKVKPEGRPGTANPARKVCSSNKIRRLSACKQQ
# Variants of: B1
# Details: with aapk2_human PRKAA2, P54646
# aapk2_human PRKAA2, P54646, sequence (P54646 whole entry, looked up): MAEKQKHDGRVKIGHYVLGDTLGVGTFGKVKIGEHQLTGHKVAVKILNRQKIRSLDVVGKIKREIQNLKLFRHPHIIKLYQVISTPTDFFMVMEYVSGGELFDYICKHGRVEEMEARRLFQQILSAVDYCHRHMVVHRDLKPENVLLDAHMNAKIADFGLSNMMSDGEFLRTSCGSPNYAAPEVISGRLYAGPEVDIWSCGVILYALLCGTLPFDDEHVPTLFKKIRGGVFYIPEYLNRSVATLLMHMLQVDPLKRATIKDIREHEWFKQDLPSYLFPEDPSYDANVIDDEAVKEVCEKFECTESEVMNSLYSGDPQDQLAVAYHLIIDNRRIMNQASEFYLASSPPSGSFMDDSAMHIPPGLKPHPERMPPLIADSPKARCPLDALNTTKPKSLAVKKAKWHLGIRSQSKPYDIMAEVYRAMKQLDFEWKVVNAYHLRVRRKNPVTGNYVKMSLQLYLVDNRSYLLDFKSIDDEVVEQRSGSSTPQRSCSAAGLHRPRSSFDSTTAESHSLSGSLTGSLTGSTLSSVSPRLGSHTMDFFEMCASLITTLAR
row,Variant,effect of a mutation on the interaction
1,MDVADPEPLGLFSEGELMSVGMDTFIHRIDSTEVIYQPRRKRAKLIGKYLMGDLLGEGSYGKVKEVLDSETLCRRAVKILKKKKLRRIPNGEANVKKEIQLLRRLRHRNVIQLVDVLYNEEKQKMYMVMEYCVCGMQEMLDSVPEKRFPVCQAHGYFRQLIDGLEYLHSQGIVHKDIKPGNLLLTTNGTLKISDLGVAEALHPFAVDDTCRTSQGSPAFQPPEIANGLDTFSGFKVDIWSAGVTLYNITTGLYPFEGDNIYKLFENIGRGDFTIPCDCGPPLSDLLRGMLEYEPAKRFSIRQIRQHSWFRKKHPLAEALVPIPPSPDTKDRWRSMTVVPYLEDLHGRAEEEEEEDLFDIEDGIIYTQDFTVPGQVLEEEVGQNGQSHSLPKAVCVNGTEPQLSSKVKPEGRPGTANPARKVCSSNKIRRLDACKQQ [S431D],decreasing interaction strength
2,MDVADPEPLGLFSEGELMSVGMDTFIHRIDSTEVIYQPRRKRAKLIGKYLMGDLLGEGSYGKVKEVLDSETLCRRAVKILKKKKLRRIPNGEANVKKEIQLLRRLRHRNVIQLVDVLYNEEKQKMYMVMEYCVCGMQEMLDSVPEKRFPVCQAHGYFRQLIDGLEYLHSQGIVHKDIKPGNLLLTTNGTLKISDLGVAEALHPFAVDDTCRTSQGSPAFQPPEIANGLDTFSGFKVDIWSAGVTLYNITTGLYPFEGDNIYKLFENIGRGDFTIPCDCGPPLSDLLRGMLEYEPAKRFSIRQIRQHSWFRKKHPLAEALVPIPPSPDTKDRWRSMTVVPYLEDLHGRAEEEEEEDLFDIEDGIIYTQDFTVPGQVLEEEVGQNGQSHSLPKAVCVNGTEPQLSSKVKPEGRPGTANPARKVCSSNKIRRLAACKQQ [S431A],decreasing interaction strength
3,MDVADPEPLGLFSEGELMSVGMDTFIHRIDSTEVIYQPRRKRAKLIGKYLMGDLLGEGSYGKVKEVLDSETLCRRAVKILKKKKLRRIPNGEANVKKEIQLLRRLRHRNVIQLVDVLYNEEKQKMYMVMEYCVCGMQEMLDSVPEKRFPVCQAHGYFRQLIDGLEYLHSQGIVHKDIKPGNLLLTTNGTLKISALGVAEALHPFAVDDTCRTSQGSPAFQPPEIANGLDTFSGFKVDIWSAGVTLYNITTGLYPFEGDNIYKLFENIGRGDFTIPCDCGPPLSDLLRGMLEYEPAKRFSIRQIRQHSWFRKKHPLAEALVPIPPSPDTKDRWRSMTVVPYLEDLHGRAEEEEEEDLFDIEDGIIYTQDFTVPGQVLEEEVGQNGQSHSLPKAVCVNGTEPQLSSKVKPEGRPGTANPARKVCSSNKIRRLSACKQQ [D194A],disrupting interaction strength
